Laboratory results published in patent US20140179896A1 (published 2014).
Residue numbers refer to the chain shown, from its start.

B1: A3 (designed binder)
chain: EVVAATPTSLLISWRHPHFPTRYYRITYGETGGNSPVQEFTVPLQPPTATISGLKPGVDYTITGYAVTDGWNGKMLSVPISINYRT
notes: 10Fn3 clone, Del 1-8
B2: E14 (designed binder)
chain: B1 chain with D69L, G70E, W71R, K74Q, M75V, S77F, V78T
notes: 10Fn3 clone, Del 1-8
B3: E8 (designed binder)
chain: B1 chain with D69E, G70E, K74R, M75V, S77M, V78T
notes: 10Fn3 clone, Del 1-8
B4: B3 (designed binder)
chain: B1 chain with D69M, G70E, W71R, K74R, M75E, S77M, V78T
notes: 10Fn3 clone, Del 1-8
B5: C10 (designed binder)
chain: B1 chain with D69V, G70E, W71R, K74R, M75V, S77I, V78I
notes: 10Fn3 clone, Del 1-8
B6: E15 (designed binder)
chain: B1 chain with D69L, G70E, W71P, K74R, M75Y, S77M
notes: 10Fn3 clone, Del 1-8
B7: D4 (designed binder)
chain: B1 chain with D69V, G70E, W71R, K74R, M75T, S77F, V78T
notes: 10Fn3 clone, Del 1-8
B8: C12 (designed binder)
chain: B1 chain with D69V, G70E, W71R, K74R, M75V
notes: 10Fn3 clone, Del 1-8
B9: C1 (designed binder)
chain: B1 chain with D69Q, G70E, W71R, K74R, M75E, S77R, V78T
notes: 10Fn3 clone, Del 1-8
B10: A10 (designed binder)
chain: B1 chain with D69F, K74R, M75E, S77L, V78T
notes: 10Fn3 clone, Del 1-8
B11: E16 (designed binder)
chain: B1 chain with D69V, G70E, W71E, K74R, M75Q, S77M, V78T
notes: 10Fn3 clone, Del 1-8
B12: B10 (designed binder)
chain: B1 chain with D69L, G70E, W71R, K74R, M75E, S77N, V78T
notes: 10Fn3 clone, Del 1-8
B13: A9 (designed binder)
chain: B1 chain with D69E, G73D, K74R, M75E, S77F
notes: 10Fn3 clone, Del 1-8
B14: C3 (designed binder)
chain: B1 chain with D69L, G70E, W71R, K74R, M75E, S77M, V78I
notes: 10Fn3 clone, Del 1-8
B15: A12 (designed binder)
chain: B1 chain with D69V, G70E, K74R, M75V, S77M, V78T
notes: 10Fn3 clone, Del 1-8
B16: C6 (designed binder)
chain: B1 chain with D69L, G70E, W71R, K74R, M75V, S77M, V78T
notes: 10Fn3 clone, Del 1-8
B17: D1 (designed binder)
chain: B1 chain with D69V, G70E, W71R, K74R, S77M, V78T
notes: 10Fn3 clone, Del 1-8
B18: E17 (designed binder)
chain: B1 chain with D69V, G70E, W71E, K74R, M75V, S77N, V78T
notes: 10Fn3 clone, Del 1-8
B19: D9 (designed binder)
chain: B1 chain with D69E, G70E, W71R, K74R, M75V, S77F, V78T
notes: 10Fn3 clone, Del 1-8
B20: C8 (designed binder)
chain: B1 chain with D69L, G70E, W71R, K74R, M75V, S77I, V78T
notes: 10Fn3 clone, Del 1-8
B21: E10 (designed binder)
chain: B1 chain with D69E, W71R, K74R, M75E, S77F, V78I
B22: B5 (designed binder)
chain: B1 chain with D69Q, G70E, W71R, K74R, M75E, S77M, V78T
notes: 10Fn3 clone, Del 1-8
B23: D6 (designed binder)
chain: B1 chain with D69V, G70E, W71R, M75T, S77M, V78T
notes: 10Fn3 clone, Del 1-8
B24: D12 (designed binder)
chain: B1 chain with D69V, G70E, W71R, K74R, M75K, S77M, V78T
notes: 10Fn3 clone, Del 1-8
B25: D3 (designed binder)
chain: B1 chain with D69V, G70E, W71R, K74R, M75A, S77M, V78T
notes: 10Fn3 clone, Del 1-8
B26: C7 (designed binder)
chain: B1 chain with D69H, G70E, W71R, K74R, M75V, S77M, V78T
notes: 10Fn3 clone, Del 1-8
B27: C2 (designed binder)
chain: B1 chain with D69V, G70E, W71R, K74R, M75E, S77L, V78W
notes: 10Fn3 clone, Del 1-8
B28: A11 (designed binder)
chain: B1 chain with D69L, G70E, G73N, K74R, M75V, S77M, V78T
notes: 10Fn3 clone, Del 1-8
B29: D11 (designed binder)
chain: B1 chain with D69V, G70E, W71R, K74H, M75K, S77F, V78T
notes: 10Fn3 clone, Del 1-8
B30: B4 (designed binder)
chain: B1 chain with D69N, G70E, W71R, K74R, M75E, S77M, V78T
notes: 10Fn3 clone, Del 1-8
B31: B6 (designed binder)
chain: B1 chain with D69L, G70E, W71R, M75E, S77M, V78T
notes: 10Fn3 clone, Del 1-8
B32: C9 (designed binder)
chain: B1 chain with D69V, G70E, W71R, K74L, M75V, S77M, V78T
notes: 10Fn3 clone, Del 1-8
B33: D5 (designed binder)
chain: B1 chain with D69V, G70E, W71R, K74R, M75T, S77M, V78M
notes: 10Fn3 clone, Del 1-8
B34: B12 (designed binder)
chain: B1 chain with D69V, G70E, W71R, K74R, M75E, S77R, V78T
notes: 10Fn3 clone, Del 1-8
B35: E20 (designed binder)
chain: B1 chain with D69V, G70E, W71R, K74Q, M75V, S77Y, V78T
notes: 10Fn3 clone, Del 1-8
B36: B7, B8 (designed binder)
chain: B1 chain with D69V, G70E, W71R, K74R, M75E, S77L, V78T
notes: 10Fn3 clone, Del 1-8
B37: A7 (designed binder)
chain: B1 chain with W71P, G73N, K74R, M75E, S77I
notes: 10Fn3 clone, Del 1-8
B38: A4 (designed binder)
chain: B1 chain with W71Y, G73D, K74R, M75L, S77F, V78I
notes: 10Fn3 clone, Del 1-8
B39: E13 (designed binder)
chain: B1 chain with D69L, G70E, W71Q, K74R, M75E, S77M, V78T
notes: 10Fn3 clone, Del 1-8
B40: D2 (designed binder)
chain: B1 chain with D69V, G70E, W71R, K74R, M75N, S77M, V78T
notes: 10Fn3 clone, Del 1-8
B41: D7 (designed binder)
chain: B1 chain with D69V, G70E, W71R, M75V, S77M, V78T
notes: 10Fn3 clone, Del 1-8
B42: A8 (designed binder)
chain: B1 chain with W71L, M75Y, S77F
notes: 10Fn3 clone, Del 1-8
B43: E12 (designed binder)
chain: B1 chain with D69F, G70A, W71R, N72D, K74H, M75E, L76I, S77L, V78T
notes: 10Fn3 clone, Del 1-8
B44: C11 (designed binder)
chain: B1 chain with D69V, G70E, W71R, K74R, M75V, S77I
notes: 10Fn3 clone, Del 1-8

Biological target: T1, human vascular endothelial growth factor receptor-2 Fc chimera (KDR-Fc) (human, UniProt P35968 20-764)
T1 construct: range 1-764; also called human VEGFR-2; not shown: human IgG1 Fc
Experiment: radioactive equilibrium binding assay, 1 nM KDR-Fc, % of input bound
Experimental: (§1) To prepare ³⁵S-labeled binding proteins for analysis, mRNA was prepared as described above for RNA-protein fusion production but the linker ligation step was omitted. The mRNA was expressed using rabbit reticulocyte lysate translation kit (Ambion) in the presence of ³⁵S-labeled Met at 30° C. for 1 hour. Expressed protein was purified on M2-agarose Flag beads (Sigma) as described above. This procedure produced the encoded protein without the nucleic acid tail. In a direct binding assay, VEGF-R2-Fc fusions in concentrations ranging from 0 to 200 nM were added to a constant concentration of the purified protein (0.2 or 0.5 nM) and incubated at 30° C. for 1 hour in buffer B. The receptor-binder complexes were captured using Protein A magnetic beads for another 10 minutes at room temperature using a Kingfisher™ The beads were washed with six reaction volumes of buffer B. The protein was eluted from the beads with 100 μL of 0.1 M KOH. […] of the reaction mixture and elution were dried onto a LumaPlate-96 (Packard) and the amount of ³⁵S on the plate was measured using a TopCount NXT instrument (Packard). The amount of fibronectin-based scaffold protein bound to the target was estimated as a percent of radioactivity eluted from Protein A magnetic beads compare to radioactivity in the reaction mixture. Nonspecific binding of fibronectin-based scaffold proteins to the beads was determined by measuring binding in the absence of KDR-Fc and represented less than 1-2% of the input. Specific binding was obtained through subtraction of nonspecific binding from total binding. Data was analyzed using the GraphPad Prizm software (GraphPad Software, Inc, San Diego, Calif.), fitted using a one site, non-linear binding equation.

T1 sequence (P35968 20-764 limits assumed, change not shown, form in doubt): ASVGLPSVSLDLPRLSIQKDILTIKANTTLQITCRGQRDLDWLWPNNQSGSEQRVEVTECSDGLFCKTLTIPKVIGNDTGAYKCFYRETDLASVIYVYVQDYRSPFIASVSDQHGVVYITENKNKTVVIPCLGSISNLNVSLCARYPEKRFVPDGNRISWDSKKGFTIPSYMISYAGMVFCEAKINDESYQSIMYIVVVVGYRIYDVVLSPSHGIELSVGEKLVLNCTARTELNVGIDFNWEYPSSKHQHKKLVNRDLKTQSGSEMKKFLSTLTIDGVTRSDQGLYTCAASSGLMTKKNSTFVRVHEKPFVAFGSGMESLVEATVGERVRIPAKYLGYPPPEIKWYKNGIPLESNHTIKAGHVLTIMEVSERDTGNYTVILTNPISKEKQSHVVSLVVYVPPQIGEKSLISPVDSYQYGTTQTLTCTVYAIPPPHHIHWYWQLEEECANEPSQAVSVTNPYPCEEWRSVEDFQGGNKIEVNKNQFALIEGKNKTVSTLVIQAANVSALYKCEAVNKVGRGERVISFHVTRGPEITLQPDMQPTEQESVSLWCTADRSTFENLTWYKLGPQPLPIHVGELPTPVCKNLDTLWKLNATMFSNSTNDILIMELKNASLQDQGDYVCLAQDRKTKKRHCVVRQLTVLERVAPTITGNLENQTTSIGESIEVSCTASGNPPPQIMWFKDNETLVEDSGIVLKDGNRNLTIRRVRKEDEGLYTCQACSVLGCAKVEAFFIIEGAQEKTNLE

Binding to 1 nM KDR, % [%]	Binder
33	B1
33	B2
51	B3
33	B4
24	B5
52	B6
27	B7
24	B8
28	B9
34	B10
35	B11
15	B12
31	B13
31	B14
40	B15
36	B16
38	B17
32	B18
31	B19
30	B20
53	B21
27	B22

Binding to 1 nM KDR, % [%]	Binder
32	B23
46	B24
36	B25
32	B26
40	B27
26	B28
24	B29
19	B30
23	B31
33	B32
38	B33
29	B34
43	B35
18	B36
18	B37
46	B38
38	B39
35	B40
39	B41
38	B42
36	B43
19	B44

Biological target: T2, mouse vascular endothelial growth factor receptor-2 Fc chimera (Flk-1-Fc) (mouse, UniProt P35918 20-762)
T2 construct: Bought from R&D Systems; also called mouse VEGFR-2; not shown: Fc part of the purchased chimera, not specified
Experiment: radioactive equilibrium binding assay, 1 nM Flk-1-Fc, % of input bound
Experimental: as §1

T2 sequence (P35918 20-762, change not shown): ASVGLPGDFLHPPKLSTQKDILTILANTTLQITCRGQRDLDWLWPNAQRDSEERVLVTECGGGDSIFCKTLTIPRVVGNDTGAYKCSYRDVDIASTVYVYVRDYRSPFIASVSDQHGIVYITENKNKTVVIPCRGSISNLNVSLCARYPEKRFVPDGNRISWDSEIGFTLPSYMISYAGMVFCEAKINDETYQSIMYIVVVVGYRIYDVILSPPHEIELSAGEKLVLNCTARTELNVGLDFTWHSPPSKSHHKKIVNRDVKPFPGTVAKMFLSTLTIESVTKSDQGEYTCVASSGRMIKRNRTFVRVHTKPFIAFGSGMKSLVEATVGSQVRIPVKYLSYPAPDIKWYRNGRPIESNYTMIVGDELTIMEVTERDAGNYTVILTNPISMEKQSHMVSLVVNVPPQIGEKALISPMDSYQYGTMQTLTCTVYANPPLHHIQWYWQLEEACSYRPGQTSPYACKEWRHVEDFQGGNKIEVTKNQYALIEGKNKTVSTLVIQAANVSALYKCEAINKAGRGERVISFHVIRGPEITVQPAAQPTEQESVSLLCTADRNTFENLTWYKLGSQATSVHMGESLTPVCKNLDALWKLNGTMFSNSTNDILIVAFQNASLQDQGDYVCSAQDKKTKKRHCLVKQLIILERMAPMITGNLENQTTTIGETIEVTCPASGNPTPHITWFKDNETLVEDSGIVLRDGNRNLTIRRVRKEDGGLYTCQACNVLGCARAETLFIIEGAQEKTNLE

Binding to 1 nM Flk-1, % [%]	Binder
7	B1
11	B2
10	B3
27	B4
17	B5
2	B6
44	B7
20	B8
13	B9
4	B10
0	B11
23	B12
4	B13
17	B14
10	B15
49	B16
38	B17
10	B18
40	B19
34	B20
3	B21
24	B22

Binding to 1 nM Flk-1, % [%]	Binder
30	B23
47	B24
30	B25
40	B26
16	B27
6	B28
3	B29
12	B30
11	B31
7	B32
23	B33
24	B34
11	B35
10	B36
2	B37
2	B38
1	B39
30	B40
27	B41
4	B42
1	B43
21	B44
